# Results reported in patent publication US5851983A, “Elastase inhibitory polypeptide and process for production thereof by recombinant gene technology” (Teijin Limited, priority 1987, dated 1998).
# Tests used:
# Format in all cases: biochemical
# [1] = biological target: T1, polymorphonuclear leucocyte elastase from human sputum (Homo sapiens, UniProt P08246); assay: Assay for elastase inhibitory activity (Example 35); settings: enzyme 2 × 10^-8 M, substrate 3.0 × 10^-4 M
# T1 construct: Polymorphonuclear leukocyte elastase from human sputum (EPC Co; Funakoshi Yakuhin); purchased EPC Co. (via Funakoshi Yakuhin); host or cells: human sputum
# T1 sequence (P08246 30-267): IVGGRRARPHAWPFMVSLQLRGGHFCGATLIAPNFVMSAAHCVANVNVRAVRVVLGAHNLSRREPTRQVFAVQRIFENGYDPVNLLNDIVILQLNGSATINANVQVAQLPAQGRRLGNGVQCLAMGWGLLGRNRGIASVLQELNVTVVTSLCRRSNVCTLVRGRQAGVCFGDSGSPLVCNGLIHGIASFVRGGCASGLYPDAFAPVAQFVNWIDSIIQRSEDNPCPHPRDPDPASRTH
# Experimental: (§1) Assay method used was as follows.
# (§2) Buffer: 0.1M (2-hydroxyethyl)piperazine-N'-2-ethansulfonic acid (HEPES), 0.5M NaCl, pH 7.5.
# (§3) Enzyme concentration: the following enzyme was dissolved in the above-mentioned buffer to a concentration 9 times that shown in Table 22.
# (§4) A. Polymorphonuclear leucocyte elastase from human sputum (EPC Co., Funakoshi Yakuhin)
# Substrate solution: for the enzymes A, B, C, D and E, the following substrate a, b, c, d or e, respectively, was dissolved in a solution of DMSO +the above-mentioned buffer (1:9) (note, final concentration of DMSO was 10% in the buffer) to a concentration of 9 times that shown in Table 22.
# (§5) a. MeO-Suc-Ala-Ala-Pro-Val-pNA (Bachem) […]
# (§6) To wells of an ELISA 96-well microtiter plate, were added 120 μl of the buffer and the 20 μl of a sample solution of (Arg^58 -Ala^107) SLPI obtained in Example 34, followed by 20 μl of the enzyme solution. The mixture was reacted at 37° C. for 10 minutes. Next, 20 μl of the substrate was added, and developed at 37° C. The developed color was measured by absorption at 405 nm.
# (§7) As a control the same procedure was carried out using SLPI.
# Human plasma kallikrein = biological target: T2, Human plasma kallikrein (Homo sapiens, UniProt P03952); assay: Assay for kallikrein inhibitory activity (Example 36); settings: final concentration up to ×10^-5 M; enzyme 1.0 × 10^-7 M
# T2 construct: (7) Human plasma kallikrein (Kabi, Daiichi Kagaku Yakuhin); purchased Kabi (via Daiichi Kagaku Yakuhin); host or cells: human plasma
# Experimental: H. Human plasma kallikrein (Protogene, Funakoshi Yakuhin)
# Kallikrein: 50 mM Tris-HCl, 361 mM NaCl, 0.01 mg/ml Polybrene (pH 7.8) […]
# (§8) Substrate solution: for the enzymes F, G, H and I, the following substrate f, g, h or i, respectively, was dissolved to a final concentration shown in Table 24.
# h. H.D-Pro-Phe-Arg-pNA (Kabi Vitram)
# (§9) To wells of an ELISA 96-well microtiter plate, were added a solution of (Arg^58 -Ala^107) SLPI obtained in Example 34 and then the enzyme solution, and the mixture was incubated at 37° C. for 10 minutes. Next, the substrate solution was added to develop the color, whose absorption was then measured at 405 nm. As a control, SLPI was used.
# Human plasma thrombin = biological target: T3, Human plasma thrombin (Homo sapiens, UniProt P00734); assay: Assay for thrombin inhibitory activity (Example 36); settings: final concentration up to ×10^-5 M; enzyme 3 × 10^-9 M
# T3 construct: (5) Human plasma thrombin (Kabi, Daiichi Kagaku Yakuhin); purchased Kabi (via Daiichi Kagaku Yakuhin); host or cells: human plasma
# Experimental: F. Human plasma thrombin (Sigma)
# (§10) Thrombin and FXa: 50 mM Tris-HCl, 7.5 mM EDTA-2Na, 175 mM NaCl (pH 8.4) […]
# as §8
# f. H.D-Phe-Pip-Arg-pNA (Kabi Vitrum)
# as §9
# Porcine FXa = assay: Assay for Fxa inhibitory activity (Example 36); settings: final concentration up to ×10^-5 M; enzyme 1.0 × 10^-8 M
# Experimental: I. Porcine FXa (Daichi Seiyaku)
# as §10, §8
# i. Ratio 1:1 mixture of the following compounds: [drawing 6]
# as §9
# [2] = test system: polymorphonuclear leucocyte elastase from human sputum; assay: Inhibitory constant (Ki) assay, elastase (Example 37); settings: from Table 26
# Experimental: Method for assay is as follow.
# Buffer: 0.1M N-(2-hydroxyethyl)piperazine-N'-2-ethanesulfonic acid (HEPES), 1.0M NaCl, 0.1% polyethylene glycol (pH 7.5)
# Enzyme solution: the following enzyme was dissolved in the above-mentioned buffer to a concentration 9 times that shown in Table 25.
# as §4
# Substrate solution: for the enzymes A and B, the following substrate a or b was dissolved in a solution of DMSO+the above-mentioned buffer (1:9), or in DMSO, respectively.
# as §5
# To wells of an ELISA 96-well microtiter plate, were added 120 μl of the buffer, 20 μl of a sample solution of ([…] -Ala^107) SLPI obtained in Example 25, and 20 μl of the enzyme solution in this order, an the mixture was reacted at 37° C. for 1 hour. Next, 20 μl of the substrate was added to develop at 25° C. Absorption of the developed color was measured at 405 nm. As a control, SLPI was used.
# On the basis of the result thus obtained, an inhibitory constant (Ki) of (Arg^58 -Ala^107) SLPI of the present invention was calculated according to the method of Henderson (Henderson, P. J. F. (1972), Biochem. J. 127, 321-333).
# Human plasma plasmin = biological target: T4, Human plasma plasmin (Homo sapiens, UniProt P00747); assay: Assay for plasmin inhibitory activity (Example 36); settings: final concentration up to ×10^-5 M; enzyme 1.0 × 10^-7 M
# T4 construct: (6) Human plasma plasmin (Kabi, Daiichi Kagaku Yakuhin); purchased Kabi (via Daiichi Kagaku Yakuhin); host or cells: human plasma
# Experimental: G. Human plasma plasmin (sigma)
# Plasmin: 50 mM Tris-HCl, 100 mM NaCl (pH 7.4) […]
# as §8
# g. H.D-Val-Leu-Lys-pNA (Kabi Vitrum)
# as §9
# Bovine spleen trypsin = biological target: T5, Bovine spleen trypsin (Bos taurus, UniProt P00760); assay: Assay for trypsin inhibitory activity (Example 35); settings: enzyme 2 × 10^-7 M, substrate 1.0 × 10^-3 M
# T5 construct: purchased Sigma
# T5 sequence (P00760 24-246): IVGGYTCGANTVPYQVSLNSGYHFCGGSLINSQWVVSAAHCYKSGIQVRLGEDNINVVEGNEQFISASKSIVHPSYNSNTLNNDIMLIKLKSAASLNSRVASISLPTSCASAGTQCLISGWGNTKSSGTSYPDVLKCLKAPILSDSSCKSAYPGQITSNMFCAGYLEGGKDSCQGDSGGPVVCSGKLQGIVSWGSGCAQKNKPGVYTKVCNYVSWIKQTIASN
# Experimental: as §1, §2, §3
# B. Bovine spleen trypsin (Sigma)
# Substrate solution: for the enzymes A, B, C, D and E, the following substrate a, b, c, d or e, respectively, was dissolved in a solution of DMSO +the above-mentioned buffer (1:9) (note, final concentration of DMSO was 10% in the buffer) to a concentration of 9 times that shown in Table 22. […]
# as §6, §7
# T2 sequence (P03952 391-638 limits assumed): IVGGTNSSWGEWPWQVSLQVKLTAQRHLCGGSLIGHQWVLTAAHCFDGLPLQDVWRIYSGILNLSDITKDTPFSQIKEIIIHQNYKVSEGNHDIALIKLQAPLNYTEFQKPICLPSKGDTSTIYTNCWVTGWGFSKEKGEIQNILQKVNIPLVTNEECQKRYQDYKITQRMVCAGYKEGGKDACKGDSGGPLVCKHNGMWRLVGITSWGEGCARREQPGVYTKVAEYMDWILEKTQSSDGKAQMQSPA
# T2 sequence (P03952 20-390 partner limits assumed): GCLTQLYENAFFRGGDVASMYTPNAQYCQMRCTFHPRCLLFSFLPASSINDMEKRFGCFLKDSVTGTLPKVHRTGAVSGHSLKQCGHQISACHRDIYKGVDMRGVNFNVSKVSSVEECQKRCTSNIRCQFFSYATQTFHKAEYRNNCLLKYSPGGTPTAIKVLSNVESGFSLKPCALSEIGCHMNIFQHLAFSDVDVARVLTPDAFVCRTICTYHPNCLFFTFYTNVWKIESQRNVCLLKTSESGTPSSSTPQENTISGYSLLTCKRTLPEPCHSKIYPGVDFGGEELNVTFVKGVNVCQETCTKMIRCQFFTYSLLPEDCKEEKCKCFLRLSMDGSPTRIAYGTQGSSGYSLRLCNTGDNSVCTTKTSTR
# T4 sequence (P00747 581-810 limits assumed): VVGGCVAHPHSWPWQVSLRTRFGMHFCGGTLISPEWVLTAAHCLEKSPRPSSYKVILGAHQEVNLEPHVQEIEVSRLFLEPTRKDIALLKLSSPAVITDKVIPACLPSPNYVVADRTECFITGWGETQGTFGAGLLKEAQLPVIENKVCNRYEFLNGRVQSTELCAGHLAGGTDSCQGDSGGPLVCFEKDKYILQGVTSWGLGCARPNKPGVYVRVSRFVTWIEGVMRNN
# T4 sequence (P00747 97-580 partner limits assumed): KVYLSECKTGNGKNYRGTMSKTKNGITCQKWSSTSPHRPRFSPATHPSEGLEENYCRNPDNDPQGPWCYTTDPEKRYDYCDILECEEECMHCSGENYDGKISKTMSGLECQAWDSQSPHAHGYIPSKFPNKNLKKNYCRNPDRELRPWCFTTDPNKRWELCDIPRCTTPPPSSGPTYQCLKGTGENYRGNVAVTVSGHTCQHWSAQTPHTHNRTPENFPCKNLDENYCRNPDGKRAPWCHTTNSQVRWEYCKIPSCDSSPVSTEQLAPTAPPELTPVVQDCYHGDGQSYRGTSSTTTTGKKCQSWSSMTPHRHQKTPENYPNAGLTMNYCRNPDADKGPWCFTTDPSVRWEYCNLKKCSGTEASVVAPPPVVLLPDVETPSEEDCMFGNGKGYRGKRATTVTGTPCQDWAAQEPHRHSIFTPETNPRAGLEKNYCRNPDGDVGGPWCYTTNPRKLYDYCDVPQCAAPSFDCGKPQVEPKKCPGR
substance,measurement,setting,value
(Arg^58 -Ala^107) SLPI: polypeptide having an amino acid sequence starting with the 58th Arg and ending at the 107th Ala of SLPI (RRKPGKCPVTYGQCLMLNPPNFCEMDGQCKRDLKCCMGMCGKSCVSPVKA),IC50,[1],12 nM
same,inhibitory activity to kallikrein,Human plasma kallikrein,did not exhibit inhibitory activity
same,inhibitory activity to thrombin,Human plasma thrombin,did not exhibit inhibitory activity
same,inhibitory activity to FXa,Porcine FXa,did not exhibit inhibitory activity
same,relative ratio of inhibitory activity on trypsin to that on elastase (Ki(T)/Ki(E)),[2],"about 12,000"
same,inhibitory activity to plasmin,Human plasma plasmin,did not exhibit inhibitory activity
same,IC50,Bovine spleen trypsin,2000 nM
